Our source for the self-cleavage values is the RNAGym collection of RNA variant scans (doi:10.7554/elife.80360).

The chains are these.
B1: Twister Ribozyme (parent)
chain: AACACUGCCAAUGCCGGUCCCAAGCCCGGAUAAAAGUGGAGGGGGCGG

In this data set the parent is B1. In words: self-cleavage, relative activity (ratio to wild type); higher = more cleavage; co-transcriptional.
As for AACACCGCCAAUGCCGGUCCCAAGCCCGUAUAAAAGUGGAGGGGGCGG, the self-cleavage was determined as 0.371.

Take AACACCGCCAAUGCCGGUCCCAAGCCCGAAUAAAAGUGGAGGGGGCGG: the self-cleavage is 0.34.

Take AACACAGCCAAUGCCGGUCCCAAGCCCGGAUAAAAGUAGAGGGGGCGG: the self-cleavage amounted to 0.738.

For the variant AACACAGCCAAUGCCGGUCCCAAGCCCGGAUAAAAGUCGAGGGGGCGG, the self-cleavage stood at 0.594.

Turning to AACACAGCCAAUGCCGGUCCCAAGCCCGGAUAAAAGUUGAGGGGGCGG, the self-cleavage was 0.188.

With AACACAGCCAAUGCCGGUCCCAAGCCCGGAUAAAAGUGGAGGGGGCGA, the self-cleavage was 0.76.

As to AACACAGCCAAUGCCGGUCCCAAGCCCGGAUAAAAGUGGAGGGGGCGU, the self-cleavage stood at 0.782.

Turning to AACACGGCUAAUGCCGGUCCCAAGCCCGGAUAAAAGUGGAGGGGGCGG, the self-cleavage was 0.163.

On to AACACGGCGAAUGCCGGUCCCAAGCCCGGAUAAAAGUGGAGGGGGCGG, for which the self-cleavage is 0.171.

Take AACACGGCCAAUGCCGGUCCCAAGCCCGGAUAAAAGUGGGGGGGGCGG: the self-cleavage came out at 0.137.

On to AACACCGCCAAUGCCGGUCCCAAGCCCGGAUAAAAGUUGAGGGGGCGG, for which the self-cleavage came to 0.282.

As to AACACCGCCAAUGCCGGUCCCAAGCCCGGAUGAAAGUGGAGGGGGCGG, the self-cleavage amounted to 0.518.

As for AACACCGCUAAUGCCGGUCCCAAGCCCGGAUAAAAGUGGAGGGGGCGG, the self-cleavage was 0.0507.

For the variant AACACCGCGAAUGCCGGUCCCAAGCCCGGAUAAAAGUGGAGGGGGCGG, the self-cleavage came to 0.122.

Take AACACAGCCAAUGCCGGUCCCAAGCCCGGAUAAAAGUGCAGGGGGCGG: the self-cleavage amounted to 0.183.

For the variant AACACAGCCAAUGCCGGUCCCAAGCCCGGAUAAAAGUGAAGGGGGCGG, the self-cleavage is 0.255.

With AACACCGCCAAUGCCGGUCCCAAGCCCGGUUAAAAGUGGAGGGGGCGG, the self-cleavage amounted to 0.493.

On to AACACCGCCAAUGCCGGUCCCAAACCCGGAUAAAAGUGGAGGGGGCGG, for which the self-cleavage worked out at 0.0737.

For AACACCGCCAAUGCCGGUCCCAACCCCGGAUAAAAGUGGAGGGGGCGG, the self-cleavage was 0.0688.

With AACACAGCCAAUGCCGGUCCCAAGCCCGGAUAAAAGUGGAUGGGGCGG, the self-cleavage worked out at 0.204.

On to AACACAGCCAAUGCCGGUCCCAAGCCCGGAUAAAAGUGGACGGGGCGG, for which the self-cleavage is 0.182.

On to AACACAGCCAAUGCCGGUCCCAAGCCCGGAUAAAAGUGGAAGGGGCGG, for which the self-cleavage stood at 0.203.

As to AACACAGCCAAUGCCGGUCCCAAGCCCGGAUAAAAGUGGAGGGAGCGG, the self-cleavage is 0.943.

As to AACACAGCCAAUGCCGGUCCCAAGCCCGGAUAAAAGUGGAGGGUGCGG, the self-cleavage was found to be 0.925.

AACACAGCCAAUGCCGGUCCCAAGCCCGGAUAAAAGUGGAGGGCGCGG: the self-cleavage was 0.874.

Turning to AACACCGCCAAUGCCGGCCCCAAGCCCGGAUAAAAGUGGAGGGGGCGG, the self-cleavage stood at 0.0688.

For AACACCGCCAAUGCCGGGCCCAAGCCCGGAUAAAAGUGGAGGGGGCGG, the self-cleavage came to 0.0358.

For the variant AACACAGCCAAUGCCGGGCCCAAGCCCGGAUAAAAGUGGAGGGGGCGG, the self-cleavage came to 0.0743.

Turning to AACACAGCCAAUGCCGGACCCAAGCCCGGAUAAAAGUGGAGGGGGCGG, the self-cleavage was found to be 0.174.

Turning to AACACCGCCAAUGCCGCUCCCAAGCCCGGAUAAAAGUGGAGGGGGCGG, the self-cleavage was determined as 0.0484.

Regarding AACACCGCCAAUGCCGAUCCCAAGCCCGGAUAAAAGUGGAGGGGGCGG, the self-cleavage is 0.0938.

Regarding AACACCGCCAAUGCCGGUCCCAAGCCCGGAUAAAAAUGGAGGGGGCGG, the self-cleavage is 0.136.

For AACACCGCCAAUGCCGGUCCCAAGCCCGGAUAAAAUUGGAGGGGGCGG, the self-cleavage came to 0.0917.

Consider AACACGGACAAUGCCGGUCCCAAGCCCGGAUAAAAGUGGAGGGGGCGG, for which the self-cleavage came out at 0.212.

For the variant AACACCGCCAAUGCCGGUCCUAAGCCCGGAUAAAAGUGGAGGGGGCGG, the self-cleavage is 0.0537.

For the variant AACACCGCCAAUGCCGGUCCCAAGCCCGGAUAAAAGUGGAGGGGGCGA, the self-cleavage was 0.514.

As to AACACCGCCAAUGCCGGUCCCAAGCCCGGAUAAAAGUGGAGGGAGCGG, the self-cleavage stood at 0.63.

On to AACACCGCCAAUGCCGGUCCCAAGCCCGGAUAAAAGUGGAGGGCGCGG, for which the self-cleavage is 0.513.

Regarding AACACAGCCAAUGCCGGUCCCAAGCCCGGAUAAAAGUGGAGGAGGCGG, the self-cleavage amounted to 0.223.

For AACACCGCCAAUGCCGGUCCCAAGCCAGGAUAAAAGUGGAGGGGGCGG, the self-cleavage was 0.0694.

In the case of AACACCGCCAAUGCCGGUCCCAAGCCCGGAUAAACGUGGAGGGGGCGG, the self-cleavage was determined as 0.403.

In the case of AACACCGCCAAUGCCGGUCCCAAGCACGGAUAAAAGUGGAGGGGGCGG, the self-cleavage worked out at 0.0404.

As to AACACCGCCAAUGCCGGUCCCAAGCGCGGAUAAAAGUGGAGGGGGCGG, the self-cleavage worked out at 0.125.

For the variant AACACAGCCAAUGCCGGUCCCAAGCCCGGAUAAAAGUGGAGCGGGCGG, the self-cleavage is 0.291.

On to AACACCGUCAAUGCCGGUCCCAAGCCCGGAUAAAAGUGGAGGGGGCGG, for which the self-cleavage came out at 0.174.

As for AACACCGCCAAUGCCGGUGCCAAGCCCGGAUAAAAGUGGAGGGGGCGG, the self-cleavage is 0.0653.

Consider AACACCGCCAAUGCCGGUUCCAAGCCCGGAUAAAAGUGGAGGGGGCGG, for which the self-cleavage was determined as 0.131.

Take AACACCGCCAAUGCCGGUCCCAAGCCCGGAUAAAAGUGGAGUGGGCGG: the self-cleavage was 0.107.

Regarding AACACCGCCAAUGCCGGUCCCAAGCCCGGAUAAAAGUGGAGCGGGCGG, the self-cleavage came out at 0.11.

As to AACACCGCCAAUGCAGGUCCCAAGCCCGGAUAAAAGUGGAGGGGGCGG, the self-cleavage is 0.169.

As for AACACCGCCAAUGCUGGUCCCAAGCCCGGAUAAAAGUGGAGGGGGCGG, the self-cleavage is 0.354.

For AACACCGCCAAUGCCGGUCACAAGCCCGGAUAAAAGUGGAGGGGGCGG, the self-cleavage came to 0.0292.

Turning to AACACCGCCAAUGCCGGUCUCAAGCCCGGAUAAAAGUGGAGGGGGCGG, the self-cleavage is 0.169.

Take AACACCGCCAAUGCCGGUCCCAAGCCCGGAUACAAGUGGAGGGGGCGG: the self-cleavage was 0.12.
